The values below come from PMC6238593, “Beetle luciferases with naturally red- and blue-shifted emission” (Life Science Alliance, 2018).

Assay [1] addresses T1, REPh (red-emitting luciferase from P. hirtus) (Phrixothrix hirtus, UniProt Q9U4U7, K522A).
T1 construct: full-length synthetic codon-optimised gene in pET28-MHL, E. coli BL21-CodonPlus-RIL, Ni and size-exclusion purified; about 61 kDa monomer, tetramer in solution; PDB codes 6AAA, 6ABH, 6AC3 printed without assignment to protein
T1 sequence (Q9U4U7 1-546 K522A): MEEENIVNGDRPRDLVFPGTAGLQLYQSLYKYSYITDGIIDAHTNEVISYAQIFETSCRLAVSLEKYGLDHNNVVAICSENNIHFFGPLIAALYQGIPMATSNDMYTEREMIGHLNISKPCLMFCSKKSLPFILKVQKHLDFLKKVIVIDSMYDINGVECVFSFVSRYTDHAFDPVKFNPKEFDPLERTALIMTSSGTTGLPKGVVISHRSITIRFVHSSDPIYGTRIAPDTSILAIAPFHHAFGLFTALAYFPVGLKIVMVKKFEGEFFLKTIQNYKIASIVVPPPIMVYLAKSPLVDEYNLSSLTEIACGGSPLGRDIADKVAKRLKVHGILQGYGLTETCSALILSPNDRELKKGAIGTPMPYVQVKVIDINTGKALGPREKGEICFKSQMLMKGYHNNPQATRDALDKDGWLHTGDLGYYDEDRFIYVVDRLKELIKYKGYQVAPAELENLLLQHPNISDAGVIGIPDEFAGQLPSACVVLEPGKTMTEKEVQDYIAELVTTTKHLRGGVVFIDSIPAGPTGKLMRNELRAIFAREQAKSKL
In words: differential scanning calorimetry. Type of assay: binding. The following applies: Hepes 20 mM pH 7.8, MgCl2 10 mM; ligand 5 uM (methods) or 5 mM (Figure S10 legend). A general note: Differential scanning calorimetry records heat flow against a reference as temperature is scanned.

In assay [2] the target is T2, REPh (red-emitting luciferase from P. hirtus) (Phrixothrix hirtus, UniProt Q9U4U7).
T2 construct: full-length synthetic codon-optimised gene in pET28-MHL, E. coli BL21-CodonPlus-RIL, Ni and size-exclusion purified; about 61 kDa monomer, tetramer in solution; PDB codes 6AAA, 6ABH, 6AC3 printed without assignment to protein
T2 sequence (Q9U4U7 1-546): T1 sequence (Q9U4U7 1-546 K522A) with A522K
In words: differential scanning calorimetry. Type of assay: binding. The following applies: 35 °C without ligand, Hepes 20 mM pH 7.8, MgCl2 10 mM, ligand 5 uM (methods) or 5 mM (Figure S10 legend).

In assay [3] the target is T3, GBAv (blue-shifted green-emitting luciferase from A. vivianii) (Amydetes, UniProt A0A3F2YLV6).
T3 construct: full-length synthetic codon-optimised gene in pET28a+, E. coli BL21-CodonPlus-RIL, Ni and size-exclusion purified; monomer; PDB codes 6AAA, 6ABH, 6AC3 printed without assignment to protein
T3 sequence (A0A3F2YLV6 1-547): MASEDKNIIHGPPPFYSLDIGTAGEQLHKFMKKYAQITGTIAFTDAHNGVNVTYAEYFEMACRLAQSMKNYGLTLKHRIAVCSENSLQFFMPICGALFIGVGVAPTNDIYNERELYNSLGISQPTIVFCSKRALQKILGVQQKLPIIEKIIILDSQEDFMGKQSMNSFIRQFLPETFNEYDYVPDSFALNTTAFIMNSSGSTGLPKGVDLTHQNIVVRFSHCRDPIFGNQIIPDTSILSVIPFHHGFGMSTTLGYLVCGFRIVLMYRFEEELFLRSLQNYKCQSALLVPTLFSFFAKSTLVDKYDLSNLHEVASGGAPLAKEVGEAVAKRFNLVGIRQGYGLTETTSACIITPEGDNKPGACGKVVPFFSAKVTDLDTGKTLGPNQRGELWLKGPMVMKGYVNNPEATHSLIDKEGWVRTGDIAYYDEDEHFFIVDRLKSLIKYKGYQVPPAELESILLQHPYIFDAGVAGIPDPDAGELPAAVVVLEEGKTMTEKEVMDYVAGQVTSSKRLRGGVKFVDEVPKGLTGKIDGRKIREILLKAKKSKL
In words: bioluminescence emission spectra. As to conditions: pH 7.0 to 8.0. It counts as biochemical.

Assay [4] addresses red-emitting luciferase from Phrixothrix hirtus, double mutant Y153A/F162A (Phrixothrix hirtus). In words: SEC; Superdex 200 5/150 GL; MWs estimated with a gel filtration calibration kit.
In assay [5] the target is red-emitting luciferase from Phrixothrix hirtus, mutant F162A (Phrixothrix hirtus). Described as above.
In assay [6] the target is red-emitting luciferase from Phrixothrix hirtus, mutant Y153A (Phrixothrix hirtus). The assay is described as above.
The target of assay [7] is red-emitting luciferase from the glow-worm Phrixothrix hirtus, wild type (Phrixothrix hirtus). In words: crystal structure; REPh free enzyme, P1 crystal form, 3.05 Å; only the N-terminal domains seen; PEG 3350 19-21%, bis-tris propane 100 mM pH 6.0, ammonium sulfate 200 mM.
The target is the same in assay [8]. In words: crystal structure; REPh free enzyme, P3(1)21 crystal form, 3.60 Å; PEG 3350 19-21%, bis-tris propane 100 mM pH 6.0, ammonium sulfate 200 mM.
For assay [9] the target is unchanged. In words: SEC; Superdex 200 5/150 GL; MWs estimated with a gel filtration calibration kit.

Substitutions are numbered along the chain they refer to.

For `Nc1ncnc2c1ncn2[C@@H]1O[C@H](COP(=O)(O)OP(=O)(O)OP(=O)(O)O)[C@@H](O)[C@H]1O` [ATP], the Tm entry in assay [1] is “signal was detectable only after the addition of substrate, luciferin or ATP”; in [2] (two transitions with ligand, in °C (unit assumed)), 36 and 41. Moreover, in assay [3] (co-substrate luciferin), the bioluminescence emission spectra result was “The emission of WT GBAv was pH-dependent”. With `O=C(O)[C@H]1CSC(c2nc3ccc(O)cc3s2)=N1` [firefly luciferin], the Tm in assay [2] (Tm with ligand) amounted to 41 °C. For the same molecule, the bioluminescence emission spectra result in assay [3] (co-substrate ATP) is “The emission of WT GBAv was pH-dependent”. “red-emitting luciferase from Phrixothrix hirtus, double mutant Y153A/F162A (enzyme)”: in [4], the stoichiometry N is 2. Take “red-emitting luciferase from Phrixothrix hirtus, mutant F162A (enzyme)”: the stoichiometry N in [5] is 2. Consider “red-emitting luciferase from Phrixothrix hirtus, mutant Y153A (enzyme)”, for which the stoichiometry N in assay [6] is 2. On to “red-emitting luciferase from the glow-worm Phrixothrix hirtus, wild type (enzyme)”, for which the results for the stoichiometry N in assay [7], in assay [8] and in [9] were 8, 4 and 4, respectively.

Usually stoichiometry N stands for a count of units in the complex or per binding partner.
